The source of these data is PMC3384007, “Crystal Structure of the VapBC Toxin–Antitoxin Complex from Shigella flexneri Reveals a Hetero-Octameric DNA-Binding Assembly” (Journal of Molecular Biology, 2011).

The target in series [1] is T1, VapBC complex (VapB:His6-VapC), hetero-octamer VapB4C4 (Shigella flexneri (plasmid pMYSH6000), UniProt O06663;O06662 1-75;1-132).
T1 sequence 1: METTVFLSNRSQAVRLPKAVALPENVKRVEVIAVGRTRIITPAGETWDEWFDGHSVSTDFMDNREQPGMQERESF
T1 sequence 2: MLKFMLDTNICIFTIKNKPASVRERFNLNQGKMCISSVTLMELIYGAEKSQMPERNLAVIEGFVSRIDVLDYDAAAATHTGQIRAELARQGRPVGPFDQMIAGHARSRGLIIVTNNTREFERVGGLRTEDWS
Briefly: EMSA; single shift, highest affinity site; 2.5 ng/ul VapBC, 0.1 mg/ml salmon sperm DNA. To be noted: protein: recombinant; tags: His6 on VapC; chain copies: 4;4; label: 5'-32P on SF-EMSA2-f; blunt. In general terms: In EMSA bound probe runs differently from free probe, usually more slowly.

Series [2] concerns the molecule itself. In words: cross-linking; purified VapBC complex 1 mg/ml in 100 mM sodium borate pH 9.1 with dimethyl superimidate (DMSI), aliquots after 5-120 min, 15% Coomassie-stained SDS-PAGE.
Series [3] concerns the molecule itself. In words: crystal structure; His6-VapB:VapC complex, 7 mg/ml; crystals in 0.1 M Bis-Tris pH 5.5, 1 M ammonium sulfate, 0.5% (v/v) PEG 3350, 19 °C; 2.7 Å; four copies of each protein in the asymmetric unit (VapB4C4).

B1: DNA III (dsDNA)
DNA 1: ATAAACGTATATCCCTTTGACATATCCCGG
DNA 2: CCGGGATATGTCAAAGGGATATACGTTTAT
As to B1, the binding result in series [1] is reported as “binds”.

B2: Shigella flexneri VapC toxin (MvpT) (natural protein)
chain: T1 sequence 2
notes: Untagged in this construct, purified through His6-VapB; also called PIN domain
Broadly, the stoichiometry N is a count of units in the complex or per binding partner. B2: the “stoichiometry N” value in series [2] was found to be 4.

B3: Shigella flexneri VapB antitoxin (His6-VapB) (natural protein, UniProt O06663 1-75, looked up)
chain: T1 sequence 1
notes: VapB antitoxin of the vapBC locus of the Shigella flexneri 2a virulence plasmid pMYSH6000; gene optimized for expression; No cleavage of the tag is described; In the assembly four copies of VapB stand with four of VapC (VapB4C4)
As to B3, the “stoichiometry N” value in series [2] turned out to be 4; in series [3], 2.
